Laboratory results taken from patent US20250277031A1 (BEIJING HANMI PHARMACEUTICAL, published 2025).

How the values were obtained:
recombinant rat CD47 = target: T1, recombinant rat CD47 (rat, UniProt P97829 19-140, limits assumed); assay: ELISA, plate coated with 1 µg/mL recombinant rat CD47, anti-human IgG-HRP, OD450
T1 sequence (looked up): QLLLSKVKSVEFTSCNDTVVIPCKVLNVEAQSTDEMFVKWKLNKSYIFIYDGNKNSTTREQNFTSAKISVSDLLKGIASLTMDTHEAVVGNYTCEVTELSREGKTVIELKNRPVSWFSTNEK
Protocol: (§1) Species specificity of the chimeric anti-human CD47 mAbs was determined by ELISA. A 96-well high-adsorption ELISA plate was coated with 1 μg/mL of the recombinant human CD47, cynomolgus CD47, rat CD47 and mouse CD47, at 100 μL per well using carbonate buffer solution, pH=9.6 at 4° C. overnight. The plate was washed 5 times with PBST, and then blocked using PBST with 1% BSA, 300 μL/well, and incubated at 25° C. for 1 hour, and then washed 5 times with PBST. The chimeric anti-human CD47 antibody samples serially diluted in PBST with 1% BSA were added, 100 μL/well, incubated at 25° C. for 1 hour, and then washed 5 times with PBST. The horseradish peroxidase-labeled anti-human IgG antibody (Chemicon, catalog number AP309P) diluted 1:10000 in PBST with 1% BSA was then added, 100 μL per well, and incubated at 25° C. for 1 hour. The plate was washed 5 times with PBST. The colorimetric substrate TMB was added, 100 μL/well, and developed at room temperature for 10 minutes. 1M H₂SO₄ was added, 100 μL/well, to stop the development. The absorbance at 450 nm was read on a microplate reader.

recombinant mouse CD47 = target: T2, recombinant mouse CD47 (mouse, UniProt Q61735 19-140, limits assumed); assay: ELISA, plate coated with 1 µg/mL recombinant mouse CD47, anti-human IgG-HRP, OD450
T2 sequence (looked up): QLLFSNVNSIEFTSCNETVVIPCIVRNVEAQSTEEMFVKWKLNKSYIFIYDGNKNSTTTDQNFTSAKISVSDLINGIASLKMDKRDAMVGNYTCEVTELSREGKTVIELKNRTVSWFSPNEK
Protocol: as §1

recombinant human CD47 = target: T3, recombinant human CD47 (human, UniProt Q08722 19-139); assay: ELISA, plate coated with 1 µg/mL recombinant human CD47, OD450
T3 construct: also called antigen CD47
T3 sequence (Q08722 19-139 limits assumed): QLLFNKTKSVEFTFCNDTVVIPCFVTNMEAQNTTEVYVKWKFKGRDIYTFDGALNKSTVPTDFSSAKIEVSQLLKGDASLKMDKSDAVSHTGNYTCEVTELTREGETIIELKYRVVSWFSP
Protocol: A 96-well high-adsorption ELISA plate was coated with 1 μg/mL of the recombinant human CD47 (Sino Biological Inc.) at 100 μL per well using carbonate buffer solution, pH=9.6 at 4° C. overnight. The plate was washed 5 times with PBST, and then blocked using PBST with 1% BSA, 300 μL/well, and incubated at 25° C. for 1 hour, and then washed 5 times with PBST. The anti-human CD47 antibody samples and the control CC-90002 (a patent sequence from WO2016109415) were added, 100 μL/well, incubated at 25° C. for 1 hour, and then washed 5 times with PBST. The horseradish peroxidase-labeled anti-mouse IgG antibody (Abcam, catalog number Ab7068) diluted 1:10000 in PBST with 1% BSA was then added, 100 μL per well, and incubated at 25° C. for 1 hour. The plate was washed 5 times with PBST. The colorimetric substrate TMB was added, 100 μL/well, and developed at room temperature for 10 minutes. 1M H₂SO₄ was added, 100 μL/well, to stop the development. The absorbance at 450 nm was read on a microplate reader.

[1] = target: T4, rat CD47 on rat red blood cells (rat, UniProt P97829 19-303); assay: flow cytometry on rat RBCs
T4 construct: whole, on cells; also called Rat RBCs
T4 sequence (looked up): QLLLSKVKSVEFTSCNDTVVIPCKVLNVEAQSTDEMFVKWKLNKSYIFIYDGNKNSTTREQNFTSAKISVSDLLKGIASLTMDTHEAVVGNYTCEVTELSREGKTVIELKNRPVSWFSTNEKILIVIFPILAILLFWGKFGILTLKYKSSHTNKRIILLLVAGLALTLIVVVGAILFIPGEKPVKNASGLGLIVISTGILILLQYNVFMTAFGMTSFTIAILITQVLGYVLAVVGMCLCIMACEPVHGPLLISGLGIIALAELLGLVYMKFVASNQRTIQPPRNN
Protocol: The species specificity of the chimeric anti-human CD47 monoclonal antibodies was determined by flow cytometer FACS. Normal human RBCs internally donated, cynomolgus RBCs, rat RBCs and mouse RBCs were collected, washed once with cold PBS (GIBCO, Catalog number 14190) containing 2% FBS (Hyclone, Catalog number SH30084.03). The RBCs (2×10⁶ cells per tube) were resuspended in 100 μL of cold PBS containing 2% FBS, and the serially diluted anti-human CD47 antibody samples and the control CC-90002 and the isotype control were added therein. Flow tubes were incubated on ice for 30 minutes. The cells were washed twice with PBS containing 2% FBS. Then the pellets were resuspended in 200 μL of cold PBS containing 2% FBS and FITC-labeled anti-human IgG antibody diluted 1:1000 (Beijing Zhongshan Golden Bridge, Catalog number ZF0306), incubated on ice for 30 minutes in the dark. The cells were washed twice with PBS containing 2% FBS, then resuspended in 500 μL of cold PBS. The cell suspension obtained was detected and analyzed on a flow cytometer (BD, FACS Calibur), and the fluorescence intensities of the RBCs were read.

B7-H1 = target: T5, B7-H1 (human, UniProt Q9NZQ7); assay: ELISA, plate coated with 1 µg/mL recombinant human protein, anti-human IgG-HRP, OD450; antibody concentration not given
T5 construct: recombinant protein; also called PD-L1
T5 sequence (Q9NZQ7 19-238 limits assumed): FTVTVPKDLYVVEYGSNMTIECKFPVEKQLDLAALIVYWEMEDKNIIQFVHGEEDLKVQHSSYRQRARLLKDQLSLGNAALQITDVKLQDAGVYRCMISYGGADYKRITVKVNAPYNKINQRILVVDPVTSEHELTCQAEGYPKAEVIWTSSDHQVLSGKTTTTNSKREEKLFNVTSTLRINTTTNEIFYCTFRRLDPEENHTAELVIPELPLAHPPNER

binding result (recombinant rat CD47): no binding (tested: about 20 nM) | binding result (recombinant mouse CD47): no binding (tested: about 20 nM) | EC50 (recombinant human CD47): 0.026 nM | binding result [1]: no binding | binding result (B7-H1): no binding
B1: chimeric anti-human CD47 monoclonal antibody mAb-18-5 (antibody, human IgG1, kappa)
heavy: not shown
light: DIVMTQSQKFMSTSVGDRVSITCKASQNVRTSIAWYQQKSGQSPKTLIYLASNRHTGVPDRFTGSGSGTDFTLTISNVQSEDLADYFCLQHWNYPFTFGSGTKLEIKRTVAAPSVFIFPPSDEQLKSGTASVVCLLNNFYPREAKVQWKVDNALQSGNSQESVTEQDSKDSTYSLSSTLTLSKADYEKHKVYACEVTHQGLSSPVTKSFNRGEC
